In PMC7893823, “Structural basis of nucleosomal histone H4 lysine 20 methylation by SET8 methyltransferase” (Life Science Alliance, 2021):

Target: histone H4 (human, UniProt P62805 1-103)
Experiment: cryo-EM structure; NCP or NCP^CENP-A (0.52 μM) mixed with SET8 (1.0 or 0.94 μM) at 25°C with 0.10 mM S-adenosyl-L-homocysteine, 50 mM NaCl, 50 mM KCl; complex purified by GraFix (sucrose gradient with paraformaldehyde cross-linking)
Conditions: both partners purified

binding result: binds
B1: human SET8 (KMT5A Isoform 2) (enzyme)
chain: MARGRKMSKPRAVEAAAAAAAVAATAPGPEMVERRGPGRPRTDGENVFTGQSKIYSYMSPNKCSGMRFPLQEENSVTHHEVKCQGKPLAGIYRKREEKRNAGNAVRSAMKSEEQKIKDARKGPLVPFPNQKSEAAEPPKTPPSSCDSTNAAIAKQALKKPIKGKQAPRKKAQGKTQQNRKLTDFYPVRRSSRKSKAELQSEERKRIDELIESGKEEGMKIDLIDGKGRGVIATKQFSRGDFVVEYHGDLIEITDAKKREALYAQDPSTGCYMYYFQYLSKTYCVDATRETNRLGRLINHSKCGNCQTKLHDIDGVPHLILIASRDIAAGEELLYDYGDRSKASIEAHPWLKH
notes: SET8 (KMT5A), human, isoform 2, UniProt Q9NQR1-2; residue numbers (Arg188, Arg192) count on isoform 2; His6 tag removed with PreScission protease (modified pET15b vector); also called PR-SET7; SETD8; source: E. coli BL21(DE3), purified (Ni-NTA, Mono S, Superdex 200)
